These results are taken from paper PMC2963451.

The series addresses Gag (GagΔp6) (HIV-1 BH10, UniProt P03347 1-447). The series can be described thus: fluorescence anisotropy. On the technique in general: In fluorescence polarisation assays a small probe gives low polarisation when free and higher when bound to something large.

For orientation: Kd means the free concentration of one partner at which half of the binding sites on the other are occupied at equilibrium, for simple one-to-one binding. The molecule AGCTGCTTTTTGCCTGTACT (ssDNA) [JL936] showed a Kd of 9 nM.
AGCUGCUUUUUGCCUGUACU (ssRNA) [JL943]: the dissociation constant Kd was 8 nM.
